Reference: the supplement of paper PMC9876800

Tested on: peptide library, one residue held at a place counted from the S/T acceptor
Assay: relative phosphorylation of the sub-library (ratio to the mean residue at this position); higher = residue favoured
Conditions: human
How it was run: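 Each biotinylated degenerate peptide sub-library fixed one residue at one position around a central Ser/Thr and was incubated with a purified recombinant kinase, a human or orthologue construct, in 384-well plates. The 90 min reactions, under kinase-specific conditions, contained 50 μM peptide and 50 μM ATP spiked with γ-32P-ATP. Phosphorylation was read by phosphorimaging spots on streptavidin membranes and quantifying them by densitometry. Relative sub-library phosphorylation expresses each value as a ratio to the mean residue at that position.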

FAM20C, construct: aa23-end, sequence (Q8IXL6 23-584, looked up): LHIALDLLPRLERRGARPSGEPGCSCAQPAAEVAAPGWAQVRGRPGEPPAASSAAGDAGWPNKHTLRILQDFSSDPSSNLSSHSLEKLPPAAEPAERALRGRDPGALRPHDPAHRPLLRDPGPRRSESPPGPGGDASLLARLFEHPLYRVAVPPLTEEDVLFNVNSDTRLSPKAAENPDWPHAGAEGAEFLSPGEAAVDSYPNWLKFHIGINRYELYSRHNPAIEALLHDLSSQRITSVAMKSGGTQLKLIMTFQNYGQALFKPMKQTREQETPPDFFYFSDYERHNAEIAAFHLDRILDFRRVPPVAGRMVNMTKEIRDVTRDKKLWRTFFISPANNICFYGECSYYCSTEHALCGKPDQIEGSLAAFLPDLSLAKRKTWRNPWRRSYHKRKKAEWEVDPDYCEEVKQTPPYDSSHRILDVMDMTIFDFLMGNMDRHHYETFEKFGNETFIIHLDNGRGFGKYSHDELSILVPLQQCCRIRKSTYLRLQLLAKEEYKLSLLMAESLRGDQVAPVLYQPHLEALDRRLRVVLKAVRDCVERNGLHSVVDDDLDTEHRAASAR

FAM20C, construct: aa23-end (from UniProt Q8IXL6)
relative phosphorylation
Conditions	at +1	at +2	at +3	at +4	at -1	at -2	at -3	at -4	at -5
A fixed	1.77	0.243	0.795	0.935	1.27	1.28	0.91	1.14	1.14
D fixed	1.03	0.708	2.21	1.67	2.77	1.99	1.61	1.68	1.46
E fixed	2.15	13	2.58	1.91	1.4	1.19	1.66	1.52	1.31
F fixed	0.537	0.173	0.624	0.825	0.423	0.95	0.693	0.737	1.04
G fixed	1.61	0.214	0.518	1.45	1.31	1.28	1.45	1.26	1.05
H fixed	1.39	0.25	0.863	0.874	1.29	1.08	0.95	1.02	1.43
I fixed	0.52	0.155	1.13	1.02	0.468	0.663	0.619	0.789	0.751
K fixed	0.822	0.185	0.516	0.607	0.589	0.647	0.719	0.745	0.896
L fixed	0.54	0.159	1.07	0.788	0.485	0.581	0.968	0.826	0.832
M fixed	1.11	0.205	0.884	0.92	0.555	0.673	0.851	0.887	0.761
N fixed	1.08	0.277	0.845	0.806	2.19	1.8	1.2	1.08	1.14
P fixed	0.253	0.18	0.252	0.777	0.303	1.11	1.01	1.06	0.843
Q fixed	1.26	0.454	1.17	0.863	0.934	0.809	1.07	0.997	0.907
R fixed	0.958	0.2	0.603	0.571	0.685	0.612	0.918	0.75	0.809
V fixed	0.618	0.179	1.36	1.02	0.808	0.701	0.682	0.876	0.959
W fixed	0.696	0.208	0.831	1.05	0.839	0.795	0.861	0.895	1.01
Y fixed	0.65	0.199	0.76	0.913	0.681	0.851	0.835	0.736	0.66
pThr fixed	0.641	0.744	1.28	3.06	0.797	1.09	1.49	1.38	1.05
pTyr fixed	0.699	1.02	2.15	2.74	1.08	1.96	1.64	1.1	1.19
